The target of this data set is T1, MAD7 E962Q (dead MAD7) (Eubacterium rectale, E962Q).
T1 chain: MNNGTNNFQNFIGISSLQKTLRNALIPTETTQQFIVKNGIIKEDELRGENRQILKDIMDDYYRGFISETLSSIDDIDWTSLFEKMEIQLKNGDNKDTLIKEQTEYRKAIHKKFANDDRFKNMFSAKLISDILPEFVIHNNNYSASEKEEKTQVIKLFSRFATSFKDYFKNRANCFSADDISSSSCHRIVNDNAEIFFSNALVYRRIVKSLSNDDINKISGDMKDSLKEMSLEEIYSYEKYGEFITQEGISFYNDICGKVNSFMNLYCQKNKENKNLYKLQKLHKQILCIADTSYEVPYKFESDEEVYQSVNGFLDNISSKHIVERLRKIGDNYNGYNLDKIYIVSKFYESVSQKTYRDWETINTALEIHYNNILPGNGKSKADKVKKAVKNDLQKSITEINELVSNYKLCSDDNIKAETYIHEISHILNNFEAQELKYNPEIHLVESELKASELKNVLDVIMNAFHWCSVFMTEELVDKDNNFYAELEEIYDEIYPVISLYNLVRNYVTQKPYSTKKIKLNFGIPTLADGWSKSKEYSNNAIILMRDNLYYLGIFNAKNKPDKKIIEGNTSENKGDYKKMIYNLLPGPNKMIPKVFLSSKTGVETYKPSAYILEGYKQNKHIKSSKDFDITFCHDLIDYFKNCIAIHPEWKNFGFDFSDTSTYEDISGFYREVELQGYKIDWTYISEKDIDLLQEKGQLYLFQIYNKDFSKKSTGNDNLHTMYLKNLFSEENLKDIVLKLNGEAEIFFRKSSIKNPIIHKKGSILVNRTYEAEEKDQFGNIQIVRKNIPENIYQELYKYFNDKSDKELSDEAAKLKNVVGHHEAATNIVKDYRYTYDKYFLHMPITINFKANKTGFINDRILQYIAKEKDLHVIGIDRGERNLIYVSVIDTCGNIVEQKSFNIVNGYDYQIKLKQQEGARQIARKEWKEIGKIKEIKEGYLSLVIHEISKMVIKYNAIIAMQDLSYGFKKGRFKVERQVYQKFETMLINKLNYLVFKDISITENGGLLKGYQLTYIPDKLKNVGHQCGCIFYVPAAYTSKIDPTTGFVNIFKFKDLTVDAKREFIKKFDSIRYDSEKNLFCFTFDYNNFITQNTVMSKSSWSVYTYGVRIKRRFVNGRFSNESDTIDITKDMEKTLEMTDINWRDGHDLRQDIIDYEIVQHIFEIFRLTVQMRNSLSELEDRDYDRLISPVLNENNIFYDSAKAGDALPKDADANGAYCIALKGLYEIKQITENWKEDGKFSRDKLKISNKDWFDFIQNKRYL
Description: EMSA; bound without cutting; PAM TTTA (5', from target sequence); NEB3.1, salmon sperm DNA competitor, 37 C. Particulars: tags: C-terminal 6xHis. How it is done:
To evaluate catalytic activity the modified MAD7 enzyme, an electrophoretic mobility shift assay (EMSA) was performed. The following reagents were used: [0142] […] salmon sperm DNA (United States Biological D3950-02 DNA, Salmon [0143] (Deoxyribonucleic acid) CAS: 9007-49-2 [0144] 100 pmol MAD7 variant [0145] 5 pmol double stranded, 6FAM labeled target (created as described above) [0146] 50 pmol MAD7 PPIB gRNA [0147] 2 μL NEB3.1 10X (New England Biolabs) [0148] 20 μL total reaction
The MAD7 variant was incubated with MAD7 PPIB gRNA at 37° C. for 15 minutes. Other reagents were added and incubated 37° for 30 minutes. Reactions were analyzed by gel electrophoresis. Samples were run on a 5% Mini-PROTEAN TBE Mini-Gels (Bio-Rad). Gels were pre-run for 15 minutes at 100V in 0.5X TBE running buffer, samples were loaded and run at 200V for 15 minutes. Gels were imaged with ProteinSimple FluorChem M system using blue excitation and green emission filter to detect 6FAM label. Gel was then stained for 15 minutes in ethidium bromide solution and imaged again using blue excitation and orange emission filter to detect DNA, finally the gel was stained with Coomassie stain and imaged with white light. […]
A general note: A gel shift assay detects complexes by their altered migration in electrophoresis.

B1: MAD7 PPIB gRNA ; 6FAM PPIB target duplex (ssRNA ; dsDNA)
RNA: UAAUUUCUACUCUUGUAGAUCCGUCACCAAAAUCAGAUUCA
DNA 1: AGATTCTCATAGGATTTTTACCGTCACCAAAATCAGATTCAGAACCACTTCTCTAAA
DNA 2: TTTAGAGAAGTGGTTCTGAATCTGATTTTGGTGACGGTAAAAATCCTATGAGAATCT
In the case of B1, the binding result is “binds”.

(Values after patent publication US20230265404, “ENGINEERED MAD7 DIRECTED ENDONUCLEASE” (BIO-TECHNE CORPORATION, published 2023).)
